{"source": "patent US11771766B2", "about": "“Drug delivery system containing phospholipid and cholesterol” (Taiwan Liposome Co., Ltd, priority 2009, dated 2023)", "key": {"[1]": {"experiment": "Gel filtration (Sepharose 4B) of drug/delivery vehicle mixtures: percentage of non-associated drug", "assay_type": "physicochemical", "conditions": "mixed with DOPC/DOPG/cholesterol vehicle (weight ratio 8.8/1/1.6), 50 mM phosphate buffer pH 6.2", "protocol": "DOPC, DOPG, and cholesterol at a weight ratio of 8.8/1/1.6 were dissolved in chloroform, which was then evaporated under vacuum using a rotary evaporator. The dried mixture of the phospholipids and cholesterol thus produced was suspended in deionized water to form an aqueous suspension. The suspension is then homogenized via sonication using a cup horn sonicator (Misonix Sonicator 3000), sterilized by filtration, filled aseptically in a vial, and lyophilized to form a phospholipid-cholesterol-containing delivery vehicle. The phospholipid concentration in the vehicle was determined by a conventional phosphorus assay to ensure that the vehicle contained an appropriate total amount of the phospholipids.\nThe mixtures thus formed were diluted 18-100-fold in the same phosphate buffer and an aliquot of each mixture ([…]) was subjected to gel-filtration to determine the percentage of the therapeutic agent that was in non-associated form. Briefly, an aliquot of a mixture was loaded onto a Sepharose 4B column (diameter: 1.8 mm; length: 315 mm). The components in the mixture were then eluted by 50 mM phosphate buffer (pH 6.2). Fractions containing the therapeutic agent in different form, i.e., non-associated form or associated with the phospholipids, were collected, their absorbance being measured at 215 nm and 254 nm. The amount of the therapeutic agent in each fraction was determined based on the values of OD215 and OD254."}, "[2]": {"experiment": "Pharmacokinetic properties of vitreous Avastin after intravitreal injection (Example 6)", "assay_type": "in vivo, Rabbits", "protocol": "Rabbits were injected intravitreally with either Avastin alone (control rabbits) or Avastin mixed with a delivery vehicle containing DOPC/Cholesterol/DOPG at a ratio 67.5/25/7.5 (test rabbits). Vitreous Avastin concentrations of the control rabbits were examined by ELISA at days 7, 21, and 28 post injection and those of the test rabbits were examined at days 7, 21, 28, 35, 41, and 49 post injection.\nIn a similar study, the vitreous Avastin concentrations were monitored 7, 28, 49, 70, 91 and 112 days post intravitreal injection."}, "[3]": {"experiment": "Vitreous Avastin concentration after intravitreal injection, by ELISA (Examples 2-5)", "assay_type": "in vivo, New Zealand White rabbits", "conditions": "Avastin dose 1.25 mg per eye", "protocol": "The effect of the delivery vehicles mentioned above in prolonging the lifetime of Avastin in eyes was examined following the method described in Bakri et al., Ophthalmology, 2007, 114:5, 855-859. Briefly, New Zealand White rabbits were sedated by intramuscular injection of a mixture containing Zoletil (15 mg/ml) and Rompun (7 mg/ml). Both eyes of each rabbit were injected intravitreally with 50 μl of Avastin (25 mg/ml) or one of the aqueous suspensions mentioned above (at an Avastin dose of 1.25 mg per eye) using a 30-gauge needle. Rabbits were sacrificed at 7 days or 21 days after injection and their eyes were promptly enucleated. The vitreous humor was isolated from each eye together with retina and Avastin concentration was determined by ELISA as follows.\nA F96 MaxiSorp™ NUNC-IMMUNO plate was coated with VEGF (10 μg/ml in PBS, pH 7.4; 100 μl/well) at 4° C. overnight. The VEGF-coated plate was washed with PBS and then blocked with a blocking buffer (5% skim milk in PBS) at room temperature for 1 hour. […] The absorbance at 450 nm (OD450) of each well was determined by an ELISA reader. Various pre-determined Avastin concentrations (3.125-25 ng/ml) were used to establish a standard Avastin concentration/OD450 curve. The Avastin concentration in each sample was determined based on its OD450 value in view of the standard curve. […]"}}, "data": [{"compound": "bovine serum albumin", "values": [{"measurement": "Percentage of Non-Associated Drug (% ± S.D.)", "setting": "[1]", "value": "87.2 ± 0.4", "unit": "%"}]}, {"compound": "N[C@@H](Cc1ccc(O)cc1)C(=O)O", "note": "[Tyrosine, tyrosine]", "values": [{"measurement": "Percentage of Non-Associated Drug (% ± S.D.)", "setting": "[1]", "value": "80.3 ± 0.1", "unit": "%"}]}, {"compound": "C[C@@H]1C[C@H]2[C@@H]3CCC4=CC(=O)C=C[C@]4(C)[C@@]3(F)[C@@H](O)C[C@]2(C)[C@@]1(O)C(=O)COP(=O)(O)O", "note": "[Dexamethasone sodium phosphate, dexamethasone sodium phosphate]", "values": [{"measurement": "Percentage of Non-Associated Drug (% ± S.D.)", "setting": "[1]", "value": "68.5 ± 0.5", "unit": "%"}]}, {"compound": "HWRGWVC [HWRGWVC (SEQ ID NO: 2) peptide]", "values": [{"measurement": "Percentage of Non-Associated Drug (% ± S.D.)", "setting": "[1]", "value": "52.4 ± 0.2", "unit": "%"}]}, {"compound": "HFRRHLC [HFRRHLC (SEQ ID NO: 1) peptide]", "values": [{"measurement": "Percentage of Non-Associated Drug (% ± S.D.)", "setting": "[1]", "value": "71.9 ± 0.2", "unit": "%"}]}, {"compound": "N[C@@H](Cc1c[nH]c2ccccc12)C(=O)O", "note": "[Tryptophan, tryptophan]", "values": [{"measurement": "Percentage of Non-Associated Drug (% ± S.D.)", "setting": "[1]", "value": "86.1 ± 0.8", "unit": "%"}]}, {"compound": "Avastin: an antibody specific to vascular endothelial growth factor", "values": [{"measurement": "vitreous Avastin concentration", "setting": "[2]; 28 days after intravitreal injection", "value": 13, "unit": "µg/mL"}, {"measurement": "t1/2 (half-life of intravitreal Avastin)", "setting": "[2]; control rabbits, vitreous", "value": 93.6, "unit": "h"}, {"measurement": "vitreous concentration of Avastin over time (in words, FIG. 1)", "setting": "[2]; days 7 to 49 after intravitreal injection", "value": "decreased much rapidly over time"}, {"measurement": "AUC(7-∞)", "setting": "[2]; vitreous, from the 7th day to infinity", "value": 3294, "unit": "µg·days/mL"}, {"measurement": "AUC(7-112)", "setting": "[2]; vitreous, from the 7th day to the 112th day", "value": 3294, "unit": "µg·days/mL"}, {"measurement": "AUC(112-∞)", "setting": "[2]; vitreous, from the 112th day to infinity", "value": 0, "unit": "µg·days/mL"}, {"measurement": "Percentage of Non-Associated Drug (% ± S.D.)", "setting": "[1]", "value": "62.1 ± 0.9", "unit": "%"}, {"measurement": "Avastin Concentration", "setting": "[3]; vitreous humor with retina, seven days after intravitreal injection", "value": "247 ± 27", "unit": "µg/mL"}, {"measurement": "Avastin Concentration", "setting": "[3]; vitreous, 21 days after intravitreal injection", "value": "37 ± 7", "unit": "µg/mL"}]}]}
